Laboratory results as given in patent publication US20040053837A1 (LUDWIG INSTITUTE FOR CANCER RESEARCH, published 2004).

How the values were obtained:
[1] = target: T1, human PDGF alpha-receptor (human, UniProt P16234 24-1089); assay: self-displacement standard curve, unlabeled PDGF-BB against 125I-PDGF-BB on PAE-1 cells expressing PDGF alpha-receptor
T1 construct: whole, on cells; also called PDGF receptor alpha; PDGFR-alpha
Experimental: (§1) Next, full length and truncated PDGF-C were tested for their capacity to bind to human PDGF receptors alpha and beta by analyzing their abilities to compete with PDGF-BB for binding to PDGF receptors. The binding experiments were performed on porcine aortic endothelial-1 (PAE-1) cells stably expressing the human PDGF receptors alpha and beta (Eriksson et al., EMBO J, 1992, 11, 543-550). Binding experiments were performed essentially as in Heldin et al. (EMBO J, 1988, 7:1387-1393). Different concentrations of human full-length and truncated PDGF-C, or human PDGF-BB were mixed with 5 ng/ml of ¹²⁵I-PDGF-BB in binding buffer (PBS containing 1 mg/ml of bovine serum albumin). Aliquots were incubated with the receptor expressing PAE-1 cells plated in 24-well culture dishes on ice for 90 minutes. After three washes with binding buffer, cell-bound ¹²⁵I -PDGF-BB was extracted by lysis of cells in 20 mM Tris-HCl, pH 7.5, 10% glycerol, 1% Triton X-100. The amount of cell bound radioactivity was determined in a gamma-counter. A standard curve for the binding of ¹²⁵I-labeled PDGF BB homodimers to PAE-1 cells expressing PDGF alpha-receptor is shown in FIG. 18. An increasing excess of the unlabeled protein added to the incubations competed efficiently with cell association of the radiolabeled tracer.

[2] = target: T1, human PDGF alpha-receptor; assay: competition with 125I-PDGF-BB on PAE-1 cells expressing human PDGF alpha-receptor
Experimental: as §1

human PDGF beta-receptor = target: T2, human PDGF beta-receptor (human, UniProt P09619 33-1106); assay: direct binding of 125I-labeled truncated PDGF-C to PAE-1 cells expressing PDGF beta receptor
T2 construct: whole, on cells; also called PDGF receptor beta; PDGFR-beta
T2 sequence (P09619 33-1106): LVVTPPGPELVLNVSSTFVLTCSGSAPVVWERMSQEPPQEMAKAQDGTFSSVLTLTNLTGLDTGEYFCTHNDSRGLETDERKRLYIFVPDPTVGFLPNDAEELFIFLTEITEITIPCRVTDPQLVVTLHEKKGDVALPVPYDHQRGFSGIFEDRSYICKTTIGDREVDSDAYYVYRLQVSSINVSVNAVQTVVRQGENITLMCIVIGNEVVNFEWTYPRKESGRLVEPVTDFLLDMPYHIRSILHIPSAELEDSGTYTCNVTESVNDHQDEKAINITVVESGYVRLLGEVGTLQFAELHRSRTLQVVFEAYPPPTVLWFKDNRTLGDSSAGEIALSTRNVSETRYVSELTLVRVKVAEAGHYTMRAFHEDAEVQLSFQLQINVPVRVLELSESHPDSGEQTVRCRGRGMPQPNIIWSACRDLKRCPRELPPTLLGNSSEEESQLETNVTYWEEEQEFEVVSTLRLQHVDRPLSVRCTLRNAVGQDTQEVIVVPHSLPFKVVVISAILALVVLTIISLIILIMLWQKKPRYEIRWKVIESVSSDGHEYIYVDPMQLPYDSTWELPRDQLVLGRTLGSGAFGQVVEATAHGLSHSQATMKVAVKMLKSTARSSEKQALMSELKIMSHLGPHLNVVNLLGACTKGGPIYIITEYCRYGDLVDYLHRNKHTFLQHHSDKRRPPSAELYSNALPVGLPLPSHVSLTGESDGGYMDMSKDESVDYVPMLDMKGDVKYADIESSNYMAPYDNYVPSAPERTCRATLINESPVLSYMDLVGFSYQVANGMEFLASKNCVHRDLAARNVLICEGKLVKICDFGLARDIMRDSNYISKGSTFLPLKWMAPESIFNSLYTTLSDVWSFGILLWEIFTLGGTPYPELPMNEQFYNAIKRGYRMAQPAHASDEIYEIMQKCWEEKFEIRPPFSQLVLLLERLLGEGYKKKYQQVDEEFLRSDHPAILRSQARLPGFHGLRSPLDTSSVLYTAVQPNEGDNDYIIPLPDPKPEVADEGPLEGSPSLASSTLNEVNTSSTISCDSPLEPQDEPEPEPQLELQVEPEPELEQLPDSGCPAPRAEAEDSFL
Experimental: To assess the interactions between truncated PDGF-C and the PDGF alpha and beta receptors, truncated PDGF-C was tested for its capacity to bind to porcine aortic endothelial-1 (PAE-1) cells expressing PDGF alpha or beta receptors, respectively (Eriksson et al., EMBO J, 1992 11:543-550). The binding experiments were performed essentially as described in Heldin et al. (EMBO J, 1988 7:1387-1393). Five micrograms of truncated PDGF-C protein in ten microliters of sodium borate buffer was radiolabeled using the Bolton-Hunter reagent (Amersham) to a specific activity of 4×10⁵ cpm/ng. Different concentrations of radiolabeled truncated PDGF-C, with or without added unlabeled protein, in binding buffer (PBS containing 1 mg/ml of bovine serum albumin) was added to the receptor expressing PAE-1 cells plated in 24-well culture dishes on ice for 90 minutes. After three washes with binding buffer, cell-bound ¹²⁵I-labeled PDGF-C was extracted by lysis of cells in 20 mM Tris-HCl, pH 7.5, 10% glycerol, 1% Triton X-100. The amount of cell-bound radioactivity was determined in a gamma-counter. Non-specific binding was estimated by including a 100-fold molar excess of truncated PDGF-C in some experiments. […] The binding was specific as radiolabeled PDGF-C was quantitatively displaced by a 100-fold molar excess of unlabeled protein.

VEGFR-2-Ig = target: T3, VEGFR-2-Ig (human, UniProt P35968 20-764); assay: pull-down of 35S-labelled conditioned medium with receptor-Ig on protein A-Sepharose, SDS-PAGE, phosphorimager
T3 construct: extracellular domain; Transiently expressed in 293 EBNA cells and captured on protein A-Sepharose; also called soluble Ig-fusion protein containing the extracellular domain of human VEGFR-2; not shown: Ig part of the fusion
T3 sequence (P35968 20-764): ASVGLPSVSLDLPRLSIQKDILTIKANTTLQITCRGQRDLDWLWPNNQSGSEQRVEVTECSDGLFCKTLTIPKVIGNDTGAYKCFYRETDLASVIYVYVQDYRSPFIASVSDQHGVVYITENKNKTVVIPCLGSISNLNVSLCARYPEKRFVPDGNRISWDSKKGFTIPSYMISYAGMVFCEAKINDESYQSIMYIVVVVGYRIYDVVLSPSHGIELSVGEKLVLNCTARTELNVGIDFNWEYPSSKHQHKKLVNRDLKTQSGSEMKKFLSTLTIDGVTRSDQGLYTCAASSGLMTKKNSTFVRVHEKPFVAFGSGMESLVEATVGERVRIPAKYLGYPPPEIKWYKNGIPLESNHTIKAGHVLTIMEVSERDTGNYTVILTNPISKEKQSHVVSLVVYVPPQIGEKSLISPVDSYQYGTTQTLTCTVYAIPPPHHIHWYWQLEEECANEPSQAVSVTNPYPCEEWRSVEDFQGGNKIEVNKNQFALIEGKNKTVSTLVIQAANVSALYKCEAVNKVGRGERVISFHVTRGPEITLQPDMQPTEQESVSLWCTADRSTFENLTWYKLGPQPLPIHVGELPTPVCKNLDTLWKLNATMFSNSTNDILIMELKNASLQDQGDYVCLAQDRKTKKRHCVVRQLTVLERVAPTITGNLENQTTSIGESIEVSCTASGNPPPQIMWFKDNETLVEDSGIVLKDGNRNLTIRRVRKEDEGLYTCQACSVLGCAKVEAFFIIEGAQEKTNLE
Experimental: (§2) To assess the interactions between full length and truncated PDGF-C and the VEGF receptors, full length and truncated PDGF-C were tested for their capacity to bind to soluble Ig-fusion proteins containing the extracellular domains of human VEGFR-1, VEGFR-2 and VEGFR-3 (Olofsson et al., Proc. Natl. Acad. Sci. USA, 1998 95:11709-11714). The fusion proteins, designated VEGFR-1-Ig, VEGFR-2-Ig and VEGFR-3-Ig, were transiently expressed in human 293 EBNA cells. All Ig fusion proteins were human VEGFRs. Cells were incubated for 24 hours after transfection, washed with Dulbecco's Modified Eagle Medium (DMEM) containing 0.2% bovine serum albumin and starved for 24 hours. The fusion proteins were then precipitated from the clarified conditioned medium using protein A-Sepharose beads (Pharmacia). The beads were combined with 100 microliters of 10× binding buffer (5% bovine serum albumin, 0.2% Tween 20 and 10 μg/ml heparin) and 900 microliter of conditioned medium from 293 cells that had been transfected with mammalian expression plasmids encoding full length or truncated PDGF-C or control vector, then metabolically labeled with ³⁵S-cysteine and methionine (Promix, Amersham) for 4 to 6 hours. After 2.5 hours, at room temperature, the Sepharose beads were washed 3 times with binding buffer at 4° C., once with phosphate buffered saline and boiled in SDS-PAGE buffer. Labeled proteins that were bound to the Ig-fusion proteins were analyzed by SDS-PAGE under reducing conditions. Radiolabeled proteins were detected using a phosphorimager analyzer.

VEGFR-3-Ig = target: T4, VEGFR-3-Ig (human, UniProt P35916 25-775); assay: as above
T4 construct: extracellular domain; Transiently expressed in 293 EBNA cells and captured on protein A-Sepharose; also called soluble Ig-fusion protein containing the extracellular domain of human VEGFR-3; not shown: Ig part of the fusion
T4 sequence (looked up): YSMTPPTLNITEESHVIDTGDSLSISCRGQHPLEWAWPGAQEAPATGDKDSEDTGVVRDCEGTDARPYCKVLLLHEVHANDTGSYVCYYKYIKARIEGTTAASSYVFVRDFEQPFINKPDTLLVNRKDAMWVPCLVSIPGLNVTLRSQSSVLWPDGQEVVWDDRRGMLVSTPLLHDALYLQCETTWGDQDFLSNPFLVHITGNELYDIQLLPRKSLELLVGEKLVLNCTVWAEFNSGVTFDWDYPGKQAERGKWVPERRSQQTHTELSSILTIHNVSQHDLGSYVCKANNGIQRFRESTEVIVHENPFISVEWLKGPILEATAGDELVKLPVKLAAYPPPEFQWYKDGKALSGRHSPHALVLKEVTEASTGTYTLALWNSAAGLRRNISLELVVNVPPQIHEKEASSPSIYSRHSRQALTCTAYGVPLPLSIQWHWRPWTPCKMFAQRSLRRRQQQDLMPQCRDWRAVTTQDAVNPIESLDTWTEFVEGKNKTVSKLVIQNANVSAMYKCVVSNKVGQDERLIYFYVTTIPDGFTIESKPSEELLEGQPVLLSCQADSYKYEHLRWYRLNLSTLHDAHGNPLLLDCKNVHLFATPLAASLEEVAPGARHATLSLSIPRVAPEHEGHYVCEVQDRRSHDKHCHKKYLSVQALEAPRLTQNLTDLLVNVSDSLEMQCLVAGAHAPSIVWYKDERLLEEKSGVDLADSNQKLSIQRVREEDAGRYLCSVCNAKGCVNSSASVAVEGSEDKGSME
Experimental: as §2

VEGFR-1-Ig = target: T5, VEGFR-1-Ig (human, UniProt P17948 27-758); assay: as above
T5 construct: extracellular domain; Transiently expressed in 293 EBNA cells and captured on protein A-Sepharose; The construct is cited from Olofsson et al. 1998; also called soluble Ig-fusion protein containing the extracellular domain of human VEGFR-1; not shown: Ig part of the fusion
T5 sequence (P17948 27-758): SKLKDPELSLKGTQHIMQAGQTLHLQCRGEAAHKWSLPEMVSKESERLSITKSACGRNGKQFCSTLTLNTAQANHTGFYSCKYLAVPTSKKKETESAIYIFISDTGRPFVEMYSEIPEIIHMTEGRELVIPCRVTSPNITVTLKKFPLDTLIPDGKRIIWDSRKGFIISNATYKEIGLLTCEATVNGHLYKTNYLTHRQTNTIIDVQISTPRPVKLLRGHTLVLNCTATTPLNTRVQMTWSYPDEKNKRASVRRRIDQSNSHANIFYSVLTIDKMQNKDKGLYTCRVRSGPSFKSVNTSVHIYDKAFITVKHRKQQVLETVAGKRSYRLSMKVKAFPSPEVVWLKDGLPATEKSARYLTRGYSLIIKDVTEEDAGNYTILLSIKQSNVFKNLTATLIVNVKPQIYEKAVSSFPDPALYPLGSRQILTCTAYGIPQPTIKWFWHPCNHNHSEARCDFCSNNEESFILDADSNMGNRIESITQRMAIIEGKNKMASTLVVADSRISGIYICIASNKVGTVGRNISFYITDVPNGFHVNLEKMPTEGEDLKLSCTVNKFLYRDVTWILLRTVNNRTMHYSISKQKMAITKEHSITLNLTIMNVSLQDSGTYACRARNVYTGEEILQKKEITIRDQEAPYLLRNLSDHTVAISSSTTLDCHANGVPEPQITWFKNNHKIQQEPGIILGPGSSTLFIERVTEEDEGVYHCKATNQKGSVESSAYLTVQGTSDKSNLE
Experimental: as §2

T1 sequence (P16234 24-1089): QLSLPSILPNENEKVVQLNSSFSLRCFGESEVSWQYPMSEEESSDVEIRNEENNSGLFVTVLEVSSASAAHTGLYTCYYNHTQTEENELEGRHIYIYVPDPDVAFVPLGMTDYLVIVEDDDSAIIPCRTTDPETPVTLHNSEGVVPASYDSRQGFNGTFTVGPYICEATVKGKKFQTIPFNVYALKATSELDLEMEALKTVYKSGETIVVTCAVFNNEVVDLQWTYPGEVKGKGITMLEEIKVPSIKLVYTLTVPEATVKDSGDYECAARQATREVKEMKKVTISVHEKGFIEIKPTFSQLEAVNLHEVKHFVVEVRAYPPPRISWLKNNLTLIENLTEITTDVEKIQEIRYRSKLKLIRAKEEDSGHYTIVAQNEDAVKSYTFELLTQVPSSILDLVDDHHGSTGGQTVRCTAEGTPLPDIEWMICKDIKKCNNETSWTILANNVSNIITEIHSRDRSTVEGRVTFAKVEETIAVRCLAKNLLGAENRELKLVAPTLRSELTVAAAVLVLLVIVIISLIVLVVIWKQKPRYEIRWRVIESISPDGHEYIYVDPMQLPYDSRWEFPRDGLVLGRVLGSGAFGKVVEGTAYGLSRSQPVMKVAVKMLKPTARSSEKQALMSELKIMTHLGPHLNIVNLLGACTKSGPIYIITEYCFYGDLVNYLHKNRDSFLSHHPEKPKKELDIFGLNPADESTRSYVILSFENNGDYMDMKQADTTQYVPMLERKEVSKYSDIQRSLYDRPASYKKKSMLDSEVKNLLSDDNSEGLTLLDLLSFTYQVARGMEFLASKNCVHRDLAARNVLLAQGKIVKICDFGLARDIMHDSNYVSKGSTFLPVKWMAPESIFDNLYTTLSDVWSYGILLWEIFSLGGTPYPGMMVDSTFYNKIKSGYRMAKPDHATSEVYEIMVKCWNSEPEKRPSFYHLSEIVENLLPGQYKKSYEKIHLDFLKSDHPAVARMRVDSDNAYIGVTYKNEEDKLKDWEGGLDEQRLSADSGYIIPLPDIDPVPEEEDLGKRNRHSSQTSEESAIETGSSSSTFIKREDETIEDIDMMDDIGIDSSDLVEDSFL

B1: human PDGF-BB homodimer (ligand, UniProt P01127 82-190, looked up)
chain: SLGSLTIAEPAMIAECKTRTEVFEISRRLIDRTNANFLVWPPCVEVQRCSGCCNNRNVQCRPTQVQLRPVQVRKIEIVRKKPIFKKATVTLEDHLACKCETVAAARPVT
modifications: 125I label on the tracer form
notes: also called labeled PDGF-BB
binding result [1]: binds

B2: truncated human PDGF-CC homodimer, PDGF/VEGF homology domain only (core domain, residues 230-345; recombinant, baculovirus-infected Sf9 cells, C-terminal … (ligand, not shown: small tags and cut ends)
chain: GRKSRVVDLNLLTEEVRLYSCTPRNFSVSIREELKRTDTIFWPGCLLVKRCGGNCACCLHNCNECQCVPSKVTKKYHEVLQLRPKTGVRGLHKSLTDVALEHHEECDCVCRGSTGG
notes: Secreted disulfide-bonded dimer (36 kDa non-reduced, 24 kDa monomer); also called cPDGF-CC; truncated PDGF-C
binding result [2]: binds | binding result (human PDGF beta-receptor): no binding

B3: truncated human PDGF-C expressed in 293 cells from a mammalian expression plasmid (35S-labelled conditioned medium) (ligand)
chain: B2 chain
notes: also called truncated PDGF-C; radiolabeled PDGF-C
binding result (VEGFR-2-Ig): no binding | binding result (VEGFR-3-Ig): no binding | binding result (VEGFR-1-Ig): no binding
